# Legend:
# [1] = target: FLAG-tagged human CCR5 expressed on L1.2 murine pre-B lymphoma cells (human) (UniProt P51681); assay: cell-based or functional assay
# [2] = target: human CCR5 (untagged; endogenous on human leukocytes, parent of the CCR5/CCR2b chimeras, on U87-CD4-CCR5 cells) (human) (UniProt P51681); assay: cell-based or functional assay
# [3] = target: human CCR5 (untagged; endogenous on human leukocytes, parent of the CCR5/CCR2b chimeras, on U87-CD4-CCR5 cells) (human) (UniProt P51681); assay: inhibition of ^125I-RANTES binding to activated T cells (CD3 blasts) by 10 µg/ml mAb
# [4] = target: human CCR5 (untagged; endogenous on human leukocytes, parent of the CCR5/CCR2b chimeras, on U87-CD4-CCR5 cells) (human) (UniProt P51681); assay: inhibition of ^125I-MIP-1α binding to activated T cells (CD3 blasts) by 10 µg/ml mAb
substance,measurement,setting,value
murine monoclonal antibody 2D7,"mAb concentration giving complete inhibition of chemotaxis of CCR5 L1.2 cells to RANTES, MIP-1α and MIP-1β",[1],20 µg/mL
same,percent inhibition of RANTES and MIP-1α chemotactic responses of T cell lines,[2],60 to 80%
same,"percent inhibition of chemotaxis of activated, IL-2 maintained T cells to MIP-1α",[2],60 to 80%
same,percent inhibition of ^125I-RANTES binding,[3],95%
same,percent inhibition of ^125I-MIP-1α binding,[4],85%

# From patent publication US6528625
